Reference: patent publication US20160376343A1 (NATIONAL INSTITUTE FOR BIOTECHNOLOGY IN THE NEGEV, published 2016)

B1: V1 expressed in E. coli (Trx-6xHis-tagged) (receptor)
chain: LRLLDHRALVCSQEGLNCTVKNSTCLDDSWIHPRNLTPSSPKNLQIQLHFAHTQQGDLLPVAHIEWTLQTDASILYLEGAELSVLQLNTNERLCVRFEFLSKLRHHHKRWRFTFSHFVVDPDQEYEVTVHHLPKPIPDGDPNHQSKNFLVPDCEDARMKVTTPCMSSGSLWDPNITVETLEAHQLRVSFTLWNESTHYQILLTSFPHMENHSCFEHMHHIPAPRPEEFHQRSNVTLTLSNLKGCCRHQVQIQPFFSSCLNDCLRHSATVSCPEMPDTPEPIPDYMPLW
notes: Tested as cleared E. coli lysate; not shown: N-terminal thioredoxin (Trx)-6xHistidine tag of pET32
B2: V7 expressed in E. coli (Trx-6xHis-tagged) (receptor)
chain: LRLLDHRALVCSQPGLNCTVKNSTCLDDSWIHPRNLTPSSPKDLQIQLHFAHTQQGDLVPVAHIEWTLQTDASILYLEGAELSVLQLNTNERLCVRFEFLSKLRHHHKRWRFTFSHFVVDPDQEYEVTVHHLPKPIPDGDPNHQSKNFLVPDCEDARMKVTTPCMSSGSLWDPNITVETLEAHQLRVSFTLWNESTHYQILLTSFPHMENHSCFEHMHHIPAPRPEEFHQRSNVTLTLRNLKGCCRHQVQIQPFFSSCLNDCLRHSATVSCPEMPDTPEPIPDYMPLW
notes: as for B1
B3: V15 expressed in E. coli (Trx-6xHis-tagged) (receptor)
chain: LRLLDHRALVCSQPGLNCTVKNSTCLDDSWIHPRNLTPSSPKDVQIQLHFAHTQQGDLFPVAHIEWTLQTDASILYLEGAELSVLQLNTNERLCVRFEILSKLRHHHRRWRFTFSHFVVDPGQEYEVTVHHLPKPIPDGDPNHQSKNFLVPDCEHARMKVTTPCMSSGSLWDPNITVETLEAHQLRVSFTLWNESTHYQILLTSFPHMENHSCFEHMHHIPAPRPEEFHQRSNVTLTLRNLKGCCRHQVQIQPFFSSCLNDCLRHSVTVSCPEMPDTPEPIPDYMPLW
notes: as for B1
B4: V4 expressed in E. coli (Trx-6xHis-tagged) (receptor)
chain: LRLLDHRALVCSQPGLNCTVKNSTCLDDSWIHPRNLTPSSPKDIQIQLHFAHTQQGDLLPVAHIEWTPQTDASILYLEGAELSVLQLNTNERLCVRFEFLSKLRHHHRRWRFTFSHFVVDPDQEYEVTVHHLPKPIPDGDPNHQSKNFLVPDCEDARMKVTTPCMSSGSLWDPNITVETLEAHQLRVSFTLWNESTHYQILLTSFPHMENHSCFEHMHHIPAPRPEEFHQRSNVTLTLRNLKGCCRHQVQIQPFFSSCLNDCLRHSATVSCPEMPDTPEPIPDYMPLW
notes: as for B1
B5: V14 expressed in E. coli (Trx-6xHis-tagged) (receptor)
chain: LRLLDHRALVCSQPGLNCTVKNSTCLDDSWIHPRNLTPSSPKDVQIQLHFAHTQHGDLFPVAHIEWTLQTDASILYLEGAELSVLQLNTNERLCVRFEFLSKLRHHHKRWRFTFSHFVVDPDQEYEVTVHHLPKPIPDRDPNHQSKNFLVPDCEDARMKVTTPCMSSGSLWDPNITVETLEAHQLRVSFTLWNESTHYQILLTSFPHMENHSCFEHMHHIPAPRPEEFHQRSNVTLTLRNLKGCCRHHVQIQPFFSSCLNDCLRHSVTVSCPEMPDTPEPIPDYMPLW
notes: as for B1
B6: V20 expressed in E. coli (Trx-6xHis-tagged) (receptor)
chain: LRLLDHRAPVCSQEGLNCTVKNSTCLDDSWIHPRNLTPSSPKDVQIQLHFAHTQQGDLVPVAHIEWTLQTDASILYLEGAELSVLQLNTNERLCVRFEFLSKLRHHHRRWRFTFSHFVVDPDREYEVTVHHLPKPIPDGDPNHQSKNFLVPDCEHPRMKVTTPCMSSGSLWDPNITVETLEAHQLRVSFTLWNESTHYQILLTSFPHMENHSCFEHMHHIPAPRPEEFHQRSNVTLTLRNLKGCCRHQVQIQPFFSSCLNDCLRHSATVSCPEMPDTPEPIPDYMPLW
notes: as for B1
B7: V21 expressed in E. coli (Trx-6xHis-tagged) (receptor)
chain: LRLLDHRALVCSQPGLNCTVKNSTCLDDSWIHPRNLTPSSPKDLQIQLHFAHTQQGDLLPVAHIEWTLQTDASILYLEGAELSVLQLNTNERLCVRFEFLSKLRHHHKRWRFTFSHFVVDPGQEYEVTVHHLPKPIPDGDPNHQSKNFLVPDCEHPRMKVTTPCMSSGSLWDPNITVETLKAHQLRVSFTLWNESTHYQILLISFPHMENHSCFEHMHHIPAPRPEEFHQRSNVTLTLRNLKGCCRHQVQIQPFFSSCLNDCLRHSATVSCPEMPDTPEPIPDYMPLW
notes: as for B1
B8: V11 expressed in E. coli (Trx-6xHis-tagged) (receptor)
chain: LRLLDHRALVCSQEGLNCTVKNSTCLDDSWIHPRNLTPSSPKDLQIQLHFAHTQQGDLFPVAHIEWTLQTDASILYLEGAELSVLQLNTNERLCVRFEFLSKLRHHHKRWRFTFSHFVVDPDREYEVTVHHLPKPIPDGDPNHQSKNFLVPDCEHPRMKVTTPCMSSGSLWDPNITVETLEAHQLRVSFTLWNESTHYQILLTSFPHMENHSCFEHMHHIPAPRPEEFHQRSNVTLTLRNLKGCCRHQVQIQPFFSSCLNDCLRHSATVSCPEMPDTPEPIPDYMPLW
notes: as for B1
B9: V5 expressed in E. coli (Trx-6xHis-tagged) (receptor)
chain: LRLLDHRALVCSQPGLNCTVKNSTCLDDSWIHPRNLTPSSPKNLQIQLHFAHTQQGDLLPVAHIEWTLQTDASILYLEGAELSVLQLNTNERLCVKFEFLSKLRHHHKRWRFTFSHFVVDPDQEYEVTVHHLPKPIPDGDPNHQSKNFLVPDCEHARMKVTTPCMSSGSLWDPNITVETLEAHQLRVSFTLWNESTHYQILLTSFPHMENHSCFEHMHHIPAPRPEEFHQRSNVTLTLRNLKGCCRHQVQIQPFFSSCLNDCLRHSATVSCPEMPDTPEPIPDYMPLW
notes: as for B1
B10: V17 expressed in E. coli (Trx-6xHis-tagged) (receptor)
chain: LRLLDHRALVCSQPGLNCTVKNSTCLDDSWIHPRNLTPSSPKDLQIQLHFAHTQQGDLLPVAHIEWTLQTDASILYLEGAELSVLQLNTNERLCVRFEFLSELRHHHRRWRFTFSHFVVDPGQEYEVTVHHLPKPIPDGDPNHQSKNFLVPDCEDARMKVTTPCMSSGSLWDPNITVETLEAHQLRVSFTLWNESTHYQILLTSFPHMENHSCFEHMHHIPAPRPEEFHQRSNVTLTLRNLKGCCRHQVQIQPFFSSCLNDCLRHSATVSCPEMPDTPEPIPDYMPLW
notes: as for B1
B11: V8 expressed in E. coli (Trx-6xHis-tagged) (receptor)
chain: LRLLDHRALVCSQEGLNCTVKNSTCLDDSWIHPRNLTPSSPKDLQIQLHFAHTQQGDLFPVAHIEWTLQTDASILYLEGAELSVLQLNTNERLCVRFEFLSKLRHHHKRWRFTFSHFVVDPDQEYEVTVHHLPKPIPDGDPNHQSKNFLVPDCEDARMKVTTPCMSSGSLWDPNITVETLEAHQLRVSFTLWNESTHYQILLTSFPHMENHSCFEHMHHIPAPRPEEFHQRSNVTLTLRNLKGCCRHQVQIQPFFSSCLNDCLRHSATVSCPEMPDTPEPIPDYMPLW
notes: as for B1
B12: V19 expressed in E. coli (Trx-6xHis-tagged) (receptor)
chain: LRLLDHQALVCSQEGLNCTVKNSTCLDDSWIHPRNLTPSSPKDIQIQLHFAHTQQGDLLPVAHIEWTLQTDASILYLEGAELSVLQLNTNERLCVRFEFLSKLRHHHRRWRFTFSHFVVDPDQEYEVTVHHLPKPIPDGDPNHQSKNFLVPDCEHARMKVTTPCMSSGSLWDPNITVETLEAHQLRVSFTLWNESTHYQILLTSFPHMENHSCFEHMHHIPAPRPEEFHQRSNVTLTLRNLKGCCRHQVQIQPFFSSCLNDCLRHSATVSCPEMPDTPEPIPDYMPLW
notes: as for B1
B13: V16 expressed in E. coli (Trx-6xHis-tagged) (receptor)
chain: LRLLDHRAPVCSQEGLNCTVKNSTCLDDSWIHPRNLTPSSPKDLQIQLHFAHTQQGDLFPVAHIEWTLQTDASILYLEGAELSVLQLNTNERLCVRFEFLSKLRHHHKRWRFTFSHFVVDPDQEYEVTVHHLPKPIPDGDPNHQSKNFLVPDCEDARMKVTTPCMSSGSLWDPNITVETLEAHQLRVSFTLWNESTHYQILLTSFPHMENHSCFEHMHHIPAPRPEEFHQRSNVTLTLRNLKGCCRHQVQIQPFFSSCLNDCLRHSATVSCPEMPDTPEPIPDYMPLW
notes: as for B1
B14: V12 expressed in E. coli (Trx-6xHis-tagged) (receptor)
chain: LRLLDHRAPVCSQPGLNCTVKNSTCLDDSWIHPRNLTPSSPKDLQIQLHFAHTQQGDLFPVAHIEWTLQTDASILYLEGAELSVLQLNTNERLCVRFEFLSKLRHHHRRWRFTFSRFVVDPDQEYEVTVHHLPKPIPDGDPNHQSKNFLVPDCEHPRMKVTTPCMSSGSLWDPNITVETLEAHQLRVSFTLWNESTHYQILLTSFPHMENHSCFEHMHHIPAPRPEEFHQRSNVTLTLRNLKGCCRHQVQIQPFFSSCLNDCLRHSATVSCPEMPDTPEPIPDYMPLW
notes: as for B1
B15: V13 expressed in E. coli (Trx-6xHis-tagged) (receptor)
chain: LRLLDHRALVCSQPGLNCTVKNSTCLDDSWIHPRNLTPSSPKDLQIQLHFAHTQQGDLFPVAHIEWTLQTDASILYLEGAELSVLQLNTNERLCVKFEFLSKLRHHHRRWRFTFSHFVVDPDQEYEVTVHHLPKPIPDGDPNHQSKNFLVPDCEDARMKVTTPCMSSGSLWDPNITVETLEAHQLRVSFTLWDESTHYQILLTSFPHMENHSCFEHMHHIPAPRPEEFHQRSNVTLTLRNLKWCCRHQVQIQPFFSSCLNDCLRHSATVSCPEMPDTPEPIPDYMPLW
notes: as for B1
B16: V18 expressed in E. coli (Trx-6xHis-tagged) (receptor)
chain: LRLLDHRALVCSQPGLNCTVKNSTCLDDSWIHPRNLTPSSPKDLQIQLHFAHTQQGDLFPVAHIEWTLQTDASILYLEGAELSVLQLDTNERLCVRFEFLSKLRHHHRRWRFTFSHFVVDPGQEYEVTVHHLPKPIPDGDPNHQSKNFLVPDCEDARMKVTTPCMSSGSLWDPNITVETLEAHQLRVSFTLWNESTHYQILLTSFPHMENHSCFEHMHHIPAPRPEEFHQRSNVTLTLRNLKGCCRHQVQIQPFFSSCLNDCLRHSATVSCPEMPDTPEPIPDYMPLW
notes: as for B1

Molecular target: T1, hIL-17A (human, UniProt Q16552 24-155)
T1 construct: Bought protein
Assay: ELISA on captured hIL-17A, cleared E. coli lysates

T1 sequence (Q16552 24-155 limits assumed): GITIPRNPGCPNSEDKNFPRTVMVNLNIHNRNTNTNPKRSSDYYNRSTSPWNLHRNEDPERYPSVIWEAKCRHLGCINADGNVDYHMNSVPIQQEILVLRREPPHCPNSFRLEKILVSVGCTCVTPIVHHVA

Binding result, binds:
B1
B2
B3
B4
B5
B6
B7
B8
B9
B10
B11
B12
B13
B14
B15
B16
